The text below walks through data of publication PMC10533412, “Phosphoantigens glue butyrophilin 3A1 and 2A1 to activate Vγ9Vδ2 T cells” (Nature, 2023).

The target of assay [1] is VpBTN3 butyrophilin full intracellular domain (BFI) (alpaca (Vicugna pacos)). The experiment in a line: ITC; with HMBPP. The conditions noted are these: domain or fragment. (In general: ITC needs no label: the signal is the heat of the interaction.)
Assay [2] has the same target. Nature of the assay: ITC; with IPP. The conditions noted are these: domain or fragment.
Assay [3] has the same target. The experiment in a line: ITC; with DMAPP. The conditions noted are these: domain or fragment.
The next assay has as its target HMBPP. The experiment in a line: ITC.
Another assay has as its target BTN2A1 B30.2 domain (UniProt Q7KYR7). The experiment in a line: ITC. The conditions noted are these: with HMBPP.

BTN2A1 B30.2 domain, sequence (Q7KYR7 whole entry, looked up, tested part not stated): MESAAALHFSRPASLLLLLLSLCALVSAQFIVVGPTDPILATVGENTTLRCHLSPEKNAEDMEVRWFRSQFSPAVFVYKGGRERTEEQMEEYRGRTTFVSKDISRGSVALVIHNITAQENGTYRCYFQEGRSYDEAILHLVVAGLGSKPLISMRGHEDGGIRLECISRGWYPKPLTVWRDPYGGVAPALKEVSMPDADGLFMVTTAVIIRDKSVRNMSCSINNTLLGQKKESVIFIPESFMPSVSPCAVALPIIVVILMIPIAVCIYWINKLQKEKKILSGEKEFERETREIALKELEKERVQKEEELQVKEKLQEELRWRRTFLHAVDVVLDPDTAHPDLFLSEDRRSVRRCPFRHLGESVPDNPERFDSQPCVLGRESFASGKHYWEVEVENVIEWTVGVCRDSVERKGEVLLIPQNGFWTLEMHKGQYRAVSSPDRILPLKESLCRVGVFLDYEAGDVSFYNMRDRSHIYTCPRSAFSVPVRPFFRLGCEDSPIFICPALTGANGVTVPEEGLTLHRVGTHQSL

For the substance “VpBTN2 butyrophilin full intracellular domain (BFI)”, the Kd in assay [1] is 658 nM; in assay [2], 191 µM; in assay [3], 46.5 µM.

Turning to BTN3A3 B30.2 R351H, the equilibrium dissociation constant (Kd) with HMBPP turned out to be 10.9 µM; in the assay with BTN2A1 B30.2 domain, 460 nM.

The Kd is the free concentration of one partner at which half of the binding sites on the other are occupied at equilibrium, for simple one-to-one binding. A higher Kd goes with weaker binding.
